Publication PMC10616847

Assays:
[1] = target: thrombin-specific peptide with the cleavage site
[2] = target: thrombin-specific peptide with the cleavage site; experiment: single-particle plasmon sensing (dark-field scattering microscopy of gold nanorods); peptide held on gold nanorods on a coverslip in a flow cell; thrombin 1-300 nM injected at 5 uL/min in 50 mM Tris-HCl, 10 mM CaCl2, 150 mM NaCl, pH 8.4; rate constants of a three-stage kinetic model adjusted to match the plasmon-shift time traces
[3] = target: thrombin-specific peptide with the cleavage site; experiment: single-particle plasmon sensing (dark-field scattering microscopy of gold nanorods); same sensor; standard deviation of the start time t0 of cleavage among particles against thrombin concentration, fitted with Poisson statistics of the waiting time for the first enzyme to bind to a particle; additional uncertainty of 20 s allowed

Sequence of thrombin-specific peptide with the cleavage site (peptide, as listed by the source): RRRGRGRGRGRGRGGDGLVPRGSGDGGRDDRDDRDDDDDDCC

peptide cleavage rate kb from the kinetic model matched to the plasmon-shift time traces [1]: 0.01 s^–1
kon [2]: 200000 M⁻¹ s⁻¹
kon [3]: 100000 M⁻¹ s⁻¹
Substance: active thrombin (enzyme)
